Data on four molecules can be found in patent publication US20230257469A1 (SINOCELLTECH, published 2023).

For experiment [1], the target named is T1, Recombinant human EGFR-His protein (human, UniProt P00533 25-645).
T1 construct: Bought protein; also called recombinant human EGFR protein; human EGFR protein; not shown: His tag
Nature of the experiment: ELISA as in Example 1.2.1. In general terms: ELISA stands for enzyme-linked immunosorbent assay.

Experiment [2] addresses T2, EGFR on tumor cells (UniProt P00533 25-1210, limits assumed). The experiment in a line: cell-based or functional assay.
The target of experiment [3] is T1, Recombinant human EGFR-His protein. Nature of the experiment: ELISA; EGFR-His coated at 1.37-3000 ng/mL, antibody at 13.89 nM; EC50 counted on the coated antigen concentration.
Experiment [4] concerns the target T2, EGFR on tumor cells. The experiment in a line: cell-based or functional assay. The source holds these as a separate data set.
Experiment [5] concerns the target T1, Recombinant human EGFR-His protein. Nature of the experiment: ELISA of expressed phage-library clones on recombinant human EGFR protein.
The target is the same in experiment [6]. The experiment in a line: BLI (Fortebio OctetRED96e), biotinylated recombinant human EGFR protein, fit over several concentrations. For orientation: In BLI a coated tip is dipped into the sample, and binding shifts an interference pattern.
The target in experiment [7] is T2, EGFR on tumor cells. Nature of the experiment: cell-based or functional assay. This is another data set of the same source.
Experiment [8] concerns the target T1, Recombinant human EGFR-His protein. The experiment in a line: ELISA as in Example 1.2.1; EC50 counted on the coated EGFR-His concentration.
Experiment [9] concerns the target T2, EGFR on tumor cells. Nature of the experiment: cell-based or functional assay. The source holds these as a separate data set.

Like-named read-outs stand apart in the source and are kept apart here.

Broadly, the EC50 is the concentration giving half of the maximal effect. For SCT200 (antibody), the EC50 in experiment [1] is 0.167 µg/mL. For the same molecule, in the experiment with EGFR on tumor cells [2], the EC50 (nM), inhibition of proliferation of Fadu cells, ligand: 1 µg /mL EREG stood at 14.5 nM; the EC50 (nM), inhibition of proliferation of Fadu cells, ligand: None turned out to be 0.129 nM; the EC50 (nM), inhibition of proliferation of MDA-MB-468 cells, ligand: 8 ng/mL HB-EGF came out at 7.52 nM; the EC50 (nM), inhibition of proliferation of MDA-MB-468 cells, ligand: 1 µg/mL EREG was found to be 1.44 nM. In the experiment with EGFR on tumor cells [2], this molecule yielded an EC50 (nM), inhibition of proliferation of MDA-MB-468 cells, ligand: None of 1.97 nM; a Maximum inhibition rate (%), proliferation of Fadu cells, ligand: 4 ng/mL EGF of 68.5%; a Maximum inhibition rate (%), proliferation of Fadu cells, ligand: 8 ng/mL HB-EGF of 65%; a Maximum inhibition rate (%), proliferation of Fadu cells, ligand: 1 µg /mL EREG of 48.3%. Also, in the experiment with EGFR on tumor cells [2], the Maximum inhibition rate (%), proliferation of Fadu cells, ligand: None worked out at 49.7%; the Maximum inhibition rate (%), proliferation of MDA-MB-468 cells, ligand: 8 ng/mL HB-EGF came to 53.4%; the Maximum inhibition rate (%), proliferation of MDA-MB-468 cells, ligand: 200 ng/mL BTC amounted to 40.9%; the Maximum inhibition rate (%), proliferation of MDA-MB-468 cells, ligand: 1 µg/mL EREG was determined as 66.7%. The molecule further had a Maximum inhibition rate (%), proliferation of MDA-MB-468 cells, ligand: None with EGFR on tumor cells [2] of 52.3%.

B1: human-mouse chimeric antibody EGFR-mhPA8 (antibody, human IgG1, kappa, V domains shown)
VH: QVQLQQSGPDLVKPGASVRISCKVSGYTFTTYYTHWVKQRPGRGLEWIGWIYPGDVNTKYNEKFKGKATLTADKTSSTAYMQLSSLTSEDSAVYFCAREDPGSNYFDYWGQGTTLTVSS
VL: DIQMTQSPASLAASVGETVTITCRASENIYYSLAWYQQKEGKSPQLLIYITNGLADGVPSRFSGSGSGTQYSMKIDSMQPEDTATYFCKQSYDVPLTFGAGTKLEMKR
notes: Human IgG1 and kappa constant regions; also called murine antibody EGFR-mhPA8
As for B1, the EC50 in experiment [3] was 0.129 µg/mL. Also, the “EC50 of inhibition of proliferation of MDA-MB-468 cells (WST-8)” value in the experiment with EGFR on tumor cells [4] was 2.78 nM.

B2: EGFR-mhPA8 scFv antibody (scFv)
scFv: DIQMTQSPASLAASVGETVTITCRASENIYYSLAWYQQKEGKSPQLLIYITNGLADGVPSRFSGSGSGTQYSMKIDSMQPEDTATYFCKQSYDVPLTFGAGTKLEMKSSGGGGSGGGGGGSSRSSQVQLQQSGPDLVKPGASVRISCKVSGYTFTTYYTHWVKQRPGRGLEWIGWIYPGDVNTKYNEKFKGKATLTADKTSSTAYMQLSSLTSEDSAVYFCAREDPGSNYFDYWGQGTTLTVSS
notes: Screened as a clone of a phage display library in pComb3x; also called EGFR-mhPA8 scFv antibody clone; murine antibody scFv
Take B2: the binding result in experiment [5] is listed as “binds”.

B3: humanized antibody EGFR-HPA8 (antibody, human IgG1, kappa, V domains shown)
VH: EVQLVQSGAEVKKPGATVKISCKVSGYTFTTYYTHWVKQAPGKGLEWIGWIYPGDVNTKYNEKFKGRVTLTADTSTDTAYMELSSLRSEDTAVYYCAREDPGSNYFDYWGQGTLVTVSS
VL: DIQMTQSPSSLSASVGDRVTITCRASENIYYSLAWYQQKPGKAPQLLIYITDGLADGVPSRFSGSGSGTDYTLKIDSLQPEDFATYYCKQSYDVPLTFGGGTKVEIKR
notes: IgG1/kappa; expressed in HEK-293 cells (fut8 knockout), ADCC-enhanced; also called EGFR-HPA8-Ae0
The Kd is a measure of binding affinity in units of concentration. As usually defined, the koff is a measure of how fast the partners let go of each other. In general, kon refers to a measure of how fast the partners come together. As to B3, in experiment [6], the dissociation constant (Kd) is 0.0069 nM, the koff came out at 1.1e-05 s⁻¹ and the kon was determined as 1.59e+06 M⁻¹ s⁻¹. Also, in the experiment with EGFR on tumor cells [7], the “EC50 (nM), inhibition of proliferation of MDA-MB-468 cells, ligand: 8 ng/mL HB-EGF” value was found to be 2.64 nM; the “EC50 (nM), inhibition of proliferation of MDA-MB-468 cells, ligand: 1 µg/mL EREG” value was found to be 0.81 nM; the “EC50 (nM), inhibition of proliferation of MDA-MB-468 cells, ligand: None” value is 0.9 nM. Further, the EC50 in [8] worked out at 0.117 µg/mL. In the experiment with EGFR on tumor cells [9], the “EC50 (nM), inhibition of proliferation of Fadu cells, ligand: 1 µg /mL EREG” value was 10.9 nM and the “EC50 (nM), inhibition of proliferation of Fadu cells, ligand: None” value worked out at 0.126 nM. In addition, the “EC50 for the induction of ADCC, recombinant CD16a reporter gene system (Jurkat-NFAT-Luc2p-CD16A effector cells, A431 target cells)” value with EGFR on tumor cells [4] is 0.008 nM.
